# Patent publication KR20220167207A
# Changes are numbered by the printed parent chain.
# T1: CADM1 peptide structure expressed on cells (CADM1 peptide, Myc tag, hinge, transmembrane domain, GFP) (human)
# T1 sequence: DSRAGEEGSIRAVDH
# B1: 4A2 (scFv, V domains shown)
# VH: AVTLDESGGGLQTPGRALSLACKGSGFTFSSYAMNWVRQAPGKGLEFVAQITSSGRYTYYGTAVKGRATISRDNGQSTVRLQLNNLRAEDSGTYYCAKDAAAGYYDGATAGDIDAWGHGTEVIVSS
# VL: LTQPSSVSANPGETVKITCSGGYNRYGWYQQKSPGSAPVTVIYSNNQRPSNIPSRFSGSKSGSTATLTITGVQAEDEAVYYCGSYDSSDGYAGIFGAGTTLTVL
# B2: RH6 (scFv, V domains shown)
# VH: B1 VH with R16G, A17G, A21V
# VL: VTQPSSVSANPGESVKITCSGGSYSYGWYQQKSPGSAPVTVIYSNNQRPSNIPSRFSGSTSGSTSTLTITGVQADDEAVYFCGTFDSSTNAAFGAGTTLTVL
# B3: 4A8 (scFv, V domains shown)
# VH: B1 VH with R16G, A17G, A21V, G24A
# VL: LTQPSSVSANLGGTVKITCSGGSGSNHYGWYQQKSPGSAPVTVIYSNNKRPSNIPSRFSGSKFGSTATLTITGVQADDEAVYYCGGYDSSAGYIGPFGAGTTLTVL
# B4: RB11 (scFv, V domains shown)
# VH: B1 VH with R16G, A17G, A21V
# VL: LTQPSSVSANPGGTVKITCSGGSGSYGWFQQKAPGSAPVTLIYANTNRPSDIPSRFSGSKSGSTATLTITGVQVEDEAVYYCGSTDSSYVSIFGAGTTLTVL
# Target: CADM1 on small cell lung cancer cell lines H146 and H69 (human) (UniProt Q9BY67)
# Experiment: flow cytometry, 1 ug scFv on 5x10^5 H69 cells, PE anti-HA
row,결합력 %,Binder
1,29.1%,B1
2,12%,B2
3,61.1%,B3
4,61.8%,B4

# Target: CADM1 on small cell lung cancer cell lines H146 and H69 (human) (UniProt Q9BY67)
# Experiment: flow cytometry, 1 ug scFv on 5x10^5 H146 cells, PE anti-HA
row,결합력 %,Binder
1,10.2%,B1
2,4.5%,B2
3,9.7%,B3
4,33.6%,B4

# Target: T1, CADM1 peptide structure expressed on cells (CADM1 peptide, Myc tag, hinge, transmembrane domain, GFP) (human)
# Experiment: flow cytometry, 1 ug scFv on 5x10^5 cells with the CADM1 peptide structure, PE anti-HA
row,결합력 %,Binder
1,16.3%,B1
2,15.3%,B2
3,14.7%,B3
4,16%,B4
